Patent US20100303808A1 (published 2010)

T1: human CD20 (human, UniProt P11836 1-297)
T1 construct: whole, on cells; also called human B-lymphocyte-restricted differentiation antigen; Bp35
T1 sequence (looked up): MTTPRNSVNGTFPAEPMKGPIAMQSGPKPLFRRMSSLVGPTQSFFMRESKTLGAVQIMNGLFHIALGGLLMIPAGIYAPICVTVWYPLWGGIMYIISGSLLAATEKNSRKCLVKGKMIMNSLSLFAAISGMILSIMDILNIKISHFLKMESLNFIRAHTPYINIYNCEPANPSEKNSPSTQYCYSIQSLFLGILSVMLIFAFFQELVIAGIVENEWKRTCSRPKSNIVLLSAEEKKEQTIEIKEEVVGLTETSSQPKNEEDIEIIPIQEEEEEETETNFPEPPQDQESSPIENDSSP


Legend:
human CD20 [1] = target: T1, human CD20; test: dissociation of DyLight 488-labelled antibody from Raji cells at 37 C in excess unlabelled antibody, FACS MFI; average of Studies 1 and 2; parameters: unit not given here
Procedure: (§1) All antibodies were conjugated to a fluorescein-like fluorophore, DyLight 488, according to vendor instructions (Pierce Cat. No. 53025). Following conjugation, labeled antibody was separated from free dye using chromatography columns provided in the labeling kit. […] Purified labeled antibodies were stored at 4° C. in PBS protected from light.
(§2) To measure antibody dissociation from cells, 10⁶ Raji cells were suspended in PBS containing 1% bovine serum albumin (PBS/BSA). Labeled antibody was added to a final concentration of 5 ug/ml in a volume of 1.0 ml. Following a 30 minute incubation at 37° C., unlabeled (“cold”) antibody was added to a final concentration of 1000 ug/ml. Labeled cells mixed with cold antibody were returned to 37° C. for 4 hours. At 20-minute intervals, 100 ul aliquots of cells were withdrawn from each sample, 400 uL cold PBS/BSA containing propidium iodide was added and mean fluorescence intensity (MFI) of the cell population excluding dead cells (PI⁺) determined by FACS.

human CD20 [2] = target: T1, human CD20; test: dissociation of DyLight 488-labelled antibody from Raji cells at 37 C in excess unlabelled antibody, FACS MFI; Study 2; parameters: unit not given here
Procedure: as §1, §2

human CD20 [3] = target: T1, human CD20; test: dissociation of DyLight 488-labelled antibody from Raji cells at 37 C in excess unlabelled antibody, FACS MFI; Study 1; parameters: unit not given here
Procedure: as §1, §2

human CD20 [4] = target: T1, human CD20; test: cell-based or functional assay
human CD20 [5] = target: T1, human CD20; test: cell-based or functional assay; remark: listed apart in the source
human CD20 [6] = target: T1, human CD20; test: ELISA on fixed Raji cells (CD20+), anti-human kappa detection
Procedure: Raji cells (80 μl; 1-2×10⁶ cells/ml in 24 ml with fresh growth medium diluted with 0.11 vol of 10×PBS (MPBS) and 8 ml 8% paraformaldehyde (in PBS)) were added to 96-well poly-D-lysine-coated plate and centrifuged at 2500 rpm (Beckman 6L) at 25° C. for 60 minutes. The pellets were washed 4 times with 400 μl PBS, Tween 20 (0.02% v/v). 50 μl of MPBS was added to each well after the final wash, and incubated for 1 hour at room temperature, and the blocking buffer was then discarded. Serial dilutions of the 1F5 antibodies were prepared in MPBS in a separate 96-well plate, transferred to the Raji-cell coated plate and incubated at room temperature for 1 hour. The antibody solution was then discarded and the plates were washed 6 times with 400 μl PBS buffer. Goat anti-human kappa (Sigma A7164) was prepared by diluting the stock antibody solution 1:2000 in MPBS, added to the washed wells, and incubated again at room temperature for 1 hour. The plates were again washed 6 times in 400 μl PBS buffer. 100 μl of K-blue TMB solution was added to each well. The reactions were stopped by added 50 μl red stop after 30 minutes, and the absorbance was read at 650 nm.

Binder	Half-life (dissociation from Raji cells), average (human CD20 [1])	Half-life (dissociation from Raji cells) (human CD20 [2])	Half-life (dissociation from Raji cells) (human CD20 [3])	LogEC50, complement dependent cytotoxicity (CDC) on Raji cells (human CD20 [4])	complement dependent cytotoxicity (CDC) on Raji cells, relative to rituximab (human CD20 [5])	binding result (human CD20 [6])
rituximab (antibody, V domains shown) VH: QVQLQQPGAELVKPGASVKMSCKASGYTFTSYNMHWVKQTPGRGLEWIGAIYPGNGDTSYNQKFKGKATLTADKSSSTAYMQLSSLTSEDSAVYYCARSTYYGGDWYFNVWGAGTTVTVSA VL: QIVLSQSPAILSASPGEKVTMTCRASSSVSYIHWFQQKPGSSPKPWIYATSNLASGVPVRFSGSGSGTSYSLTISRVEAEDAATYYCQQWTSNPPTFGGGTKLEIK	24	24	24	-1.73	–	–
1F5RHA x 1F5RKB11 (antibody, human IgG1, kappa, V domains shown, also called RHA x RKB11; Variant D) VH: QVQLVQSGAEVKKPGASVKVSCKASGYTFTSYNMHWVRQAPGQRLEWIGAIYPGNGDTSYNQKFKGRVTVTRDTSANTAYMELSSLKSEDTAVYYCARSHYGSNYVDYFDYWGQGTLVTVSS VL: EIVLTQSPSSLSASVGDRVTITCRASSSLSFMHWYQQKPGKAPKPWIYATSNLASGVPSRFSGSGSGTDYTLTISSLQPEDFATYFCHQWSSNPLTFGGGTKVEIKR	52	59	44	-1.06	–	–
1F5RHA x 1F5RKG11 (antibody, human IgG1, kappa, V domains shown, also called RHA x RKG11; 1F5RKG11 x 1F5RHA) VH: QVQLVQSGAEVKKPGASVKVSCKASGYTFTSYNMHWVRQAPGQRLEWIGAIYPGNGDTSYNQKFKGRVTVTRDTSANTAYMELSSLKSEDTAVYYCARSHYGSNYVDYFDYWGQGTLVTVSS VL: EIVLTQSPSSLSASVGDRVTITCRASSSLSFMHWYQQKPGKAPKPLIYATSNLASGVPSRFSGSGSGTDFTLTISSLQPEDFATYYCHQWSSNPLTFGGGTKVEIKR	65	63	67	-0.773	~10 times less than rituximab	–
chimeric antibody c1F5 (c1F5VH x c1F5VK) (antibody, human IgG1, kappa, V domains shown, Mouse 1F5 variable regions on human gamma1 / kappa constant regions; also called chimeric 1F5) VH: QVQLRQPGAELVKPGASVKMSCKASGYTFTSYNMHWVKQTPGQGLEWIGAIYPGNGDTSYNQKFKGKATLTADKSSSTAYMQLSSLTSEDSAVYYCARSHYGSNYVDYFDYWGQGTLVTVST VL: QIVLSQSPAILSASPGEKVTMTCRASSSLSFMHWYQQKPGSSPKPWIYATSNLASGVPARFSGSGSGTSYSLTISRVEAEDAATYFCHQWSSNPLTFGAGTKVEIKR	58	57	59	-0.781	–	–
1F5RHA x 1F5RKB12 (antibody, human IgG1, kappa, V domains shown, also called RHA x RKB12; Variant F) VH: QVQLVQSGAEVKKPGASVKVSCKASGYTFTSYNMHWVRQAPGQRLEWIGAIYPGNGDTSYNQKFKGRVTVTRDTSANTAYMELSSLKSEDTAVYYCARSHYGSNYVDYFDYWGQGTLVTVSS VL: EIVLTQSPGTLSLSPGERATLSCRASSSLSFMHWYQQKPGQAPRPWIYATSNLASGIPARFSGSGSGTDYTLTISRLEPEDFAVYFCHQWSSNPLTFGQGTKVELKR	68	64	72	-1.13	–	–
1F5RHA x 1F5RKF12 (antibody, human IgG1, kappa, V domains shown, also called RHA x RKF12; 1F5RKF12 x 1F5RHA) VH: QVQLVQSGAEVKKPGASVKVSCKASGYTFTSYNMHWVRQAPGQRLEWIGAIYPGNGDTSYNQKFKGRVTVTRDTSANTAYMELSSLKSEDTAVYYCARSHYGSNYVDYFDYWGQGTLVTVSS VL: EIVLTQSPGTLSLSPGERATLSCRASSSLSFMHWYQQKPGQAPRPLIYATSNLASGIPARFSGSGSGTDFTLTISRLEPEDFAVYFCHQWSSNPLTFGQGTKVELKR	66	65	67	-1.15	–	–
chimeric c1F5VH x 1F5RKB12 (antibody, human IgG1, kappa, V domains shown, IgG1 kappa from HEK293T conditioned medium) VH: QVQLRQPGAELVKPGASVKMSCKASGYTFTSYNMHWVKQTPGQGLEWIGAIYPGNGDTSYNQKFKGKATLTADKSSSTAYMQLSSLTSEDSAVYYCARSHYGSNYVDYFDYWGQGTLVTVST VL: EIVLTQSPGTLSLSPGERATLSCRASSSLSFMHWYQQKPGQAPRPWIYATSNLASGIPARFSGSGSGTDYTLTISRLEPEDFAVYFCHQWSSNPLTFGQGTKVELKR	–	–	–	–	–	binds
1F5RHA x chimeric c1F5VK (antibody, human IgG1, kappa, V domains shown, IgG1 kappa from HEK293T conditioned medium; also called chimeric VK x 1F5RHA) VH: QVQLVQSGAEVKKPGASVKVSCKASGYTFTSYNMHWVRQAPGQRLEWIGAIYPGNGDTSYNQKFKGRVTVTRDTSANTAYMELSSLKSEDTAVYYCARSHYGSNYVDYFDYWGQGTLVTVSS VL: QIVLSQSPAILSASPGEKVTMTCRASSSLSFMHWYQQKPGSSPKPWIYATSNLASGVPARFSGSGSGTSYSLTISRVEAEDAATYFCHQWSSNPLTFGAGTKVEIKR	–	–	–	–	–	binds
1F5RHB x chimeric c1F5VK (antibody, human IgG1, kappa, V domains shown, 1F5RHB is 1F5RHA with four back mutations) VH: QVQLVQSGAEVKKPGASVKVSCKASGYTFTSYNMHWVRQAPGQRLEWIGAIYPGNGDTSYNQKFKGRATLTADKSANTAYMELSSLKSEDTAVYYCARSHYGSNYVDYFDYWGQGTLVTVSS VL: QIVLSQSPAILSASPGEKVTMTCRASSSLSFMHWYQQKPGSSPKPWIYATSNLASGVPARFSGSGSGTSYSLTISRVEAEDAATYFCHQWSSNPLTFGAGTKVEIKR	–	–	–	–	–	binds
chimeric c1F5VH x 1F5RKB11 (antibody, human IgG1, kappa, V domains shown, IgG1 kappa from HEK293T conditioned medium; also called chimeric VH x 1F5RKB11) VH: QVQLRQPGAELVKPGASVKMSCKASGYTFTSYNMHWVKQTPGQGLEWIGAIYPGNGDTSYNQKFKGKATLTADKSSSTAYMQLSSLTSEDSAVYYCARSHYGSNYVDYFDYWGQGTLVTVST VL: EIVLTQSPSSLSASVGDRVTITCRASSSLSFMHWYQQKPGKAPKPWIYATSNLASGVPSRFSGSGSGTDYTLTISSLQPEDFATYFCHQWSSNPLTFGGGTKVEIKR	–	–	–	–	–	binds
